Values joined by “and” are separate entries in the source; they are usually repeats but may differ in a detail not shown here. Equal entries are not always repeated. Where two headings read alike, the source gives them in different places.
Key:
PIK3R1-C (Homo sapiens) [1] = biological target: PIK3R1-C (Homo sapiens) (UniProt P27986); details: cited from earlier work
SH2D3A (Homo sapiens) = SH2D3A (Homo sapiens) (UniProt Q9BRG2); details: cited from earlier work
VAV3 (Homo sapiens) [2] = biological target: VAV3 (Homo sapiens) (UniProt Q9UKW4); details: cited from earlier work
VAV3 (Homo sapiens), sequence (Q9UKW4 667-771): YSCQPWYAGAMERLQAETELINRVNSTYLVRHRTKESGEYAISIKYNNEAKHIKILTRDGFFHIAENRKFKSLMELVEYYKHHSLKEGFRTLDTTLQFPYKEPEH

SH2D3C (Homo sapiens) = SH2D3C (Homo sapiens) (UniProt Q8N5H7); details: cited from earlier work
SH2D3C (Homo sapiens), sequence (Q8N5H7 215-324): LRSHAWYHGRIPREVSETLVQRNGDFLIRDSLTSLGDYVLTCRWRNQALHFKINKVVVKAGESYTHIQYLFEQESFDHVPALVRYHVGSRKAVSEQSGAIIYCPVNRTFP

BLNK SH2 domain (human) = BLNK SH2 domain (human) (UniProt Q8WV28); assay: peptide or protein array; SH2/PTB proteins spotted on aldehyde slides, rhodamine peptide titrated in buffer B (20 mM HEPES, 100 mM KCl, 0.1% Tween-20, 5 mM DTT, pH 7.8), 1 h at room temperature; replicate assays
BLNK SH2 domain (human), sequence (Q8WV28 346-453): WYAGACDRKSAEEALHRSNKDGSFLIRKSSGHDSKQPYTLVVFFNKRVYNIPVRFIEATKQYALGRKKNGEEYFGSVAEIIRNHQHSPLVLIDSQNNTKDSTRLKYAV

[3] = biological target: SYK tandem SH2 domains (human); assay: as above
[4] = biological target: RASA1 tandem SH2 domains (human); assay: as above
[5] = biological target: RASA1 N-terminal SH2 domain (human) (UniProt P20936); assay: as above
RASA1 N-terminal SH2 domain (human), sequence (P20936 whole entry, the tested form may be a part): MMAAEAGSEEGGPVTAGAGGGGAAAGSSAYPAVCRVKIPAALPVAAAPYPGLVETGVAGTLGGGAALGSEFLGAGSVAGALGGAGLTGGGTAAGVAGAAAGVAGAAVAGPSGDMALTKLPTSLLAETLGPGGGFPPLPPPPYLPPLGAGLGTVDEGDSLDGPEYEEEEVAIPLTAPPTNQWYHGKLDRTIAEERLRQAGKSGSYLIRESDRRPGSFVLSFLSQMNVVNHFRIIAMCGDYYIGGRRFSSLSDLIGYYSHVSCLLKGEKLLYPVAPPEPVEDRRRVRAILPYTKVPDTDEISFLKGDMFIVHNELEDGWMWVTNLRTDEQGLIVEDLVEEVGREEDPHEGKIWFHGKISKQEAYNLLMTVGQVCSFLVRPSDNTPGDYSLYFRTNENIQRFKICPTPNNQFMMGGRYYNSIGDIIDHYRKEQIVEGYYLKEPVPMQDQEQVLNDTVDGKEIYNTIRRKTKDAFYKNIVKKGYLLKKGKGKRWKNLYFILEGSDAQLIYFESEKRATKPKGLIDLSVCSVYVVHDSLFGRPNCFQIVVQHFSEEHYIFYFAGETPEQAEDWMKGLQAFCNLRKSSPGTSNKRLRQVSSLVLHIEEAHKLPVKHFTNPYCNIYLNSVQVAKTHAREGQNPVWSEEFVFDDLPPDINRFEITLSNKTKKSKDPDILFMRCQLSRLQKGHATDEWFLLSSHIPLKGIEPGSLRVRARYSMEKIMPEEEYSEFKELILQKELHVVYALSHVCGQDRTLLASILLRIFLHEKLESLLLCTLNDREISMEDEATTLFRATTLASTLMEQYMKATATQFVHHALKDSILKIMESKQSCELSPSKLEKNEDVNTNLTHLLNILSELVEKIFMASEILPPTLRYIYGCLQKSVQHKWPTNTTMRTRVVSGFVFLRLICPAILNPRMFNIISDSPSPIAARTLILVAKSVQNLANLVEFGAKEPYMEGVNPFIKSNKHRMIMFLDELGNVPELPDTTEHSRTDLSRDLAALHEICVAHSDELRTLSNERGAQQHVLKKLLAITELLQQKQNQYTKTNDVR

LYN SH2 domain (human) = LYN SH2 domain (human) (UniProt P07948); assay: as above
LYN SH2 domain (human), sequence (P07948 129-226): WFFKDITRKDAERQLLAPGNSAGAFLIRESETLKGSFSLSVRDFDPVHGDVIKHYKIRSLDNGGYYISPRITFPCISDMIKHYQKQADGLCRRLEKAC

[6] = biological target: SYK N-terminal SH2 domain (human); assay: as above
[7] = biological target: SH2D1A SH2 domain (human) (UniProt O60880); assay: as above
SH2D1A SH2 domain (human), sequence (O60880 6-104): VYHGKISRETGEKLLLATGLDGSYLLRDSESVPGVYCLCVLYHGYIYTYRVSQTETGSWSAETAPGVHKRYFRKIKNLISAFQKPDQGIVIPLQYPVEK

SH2B3 SH2 domain (human) = SH2B3 SH2 domain (human) (UniProt Q9UQQ2); assay: as above
SH2B3 SH2 domain (human), sequence (Q9UQQ2 364-462): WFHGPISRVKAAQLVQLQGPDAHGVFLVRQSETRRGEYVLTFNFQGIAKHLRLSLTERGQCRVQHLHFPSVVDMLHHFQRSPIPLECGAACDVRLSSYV

[8] = biological target: ZAP70 tandem SH2 domains (human); assay: as above
CRK (Homo sapiens) = CRK (Homo sapiens) (UniProt P46108); details: cited from earlier work
CRK (Homo sapiens), sequence (P46108 8-123): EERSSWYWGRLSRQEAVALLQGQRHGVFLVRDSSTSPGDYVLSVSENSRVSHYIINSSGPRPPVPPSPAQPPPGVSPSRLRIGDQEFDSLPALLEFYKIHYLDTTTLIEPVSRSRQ

SHC3 (Homo sapiens) = SHC3 (Homo sapiens) (UniProt Q92529); details: cited from earlier work
SHC3 (Homo sapiens), sequence (Q92529 494-594): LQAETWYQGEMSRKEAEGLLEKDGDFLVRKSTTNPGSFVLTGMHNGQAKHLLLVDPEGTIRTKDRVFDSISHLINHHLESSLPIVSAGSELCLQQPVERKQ

PIK3R2-NC (Homo sapiens) = PIK3R2-NC (Homo sapiens) (UniProt O00459); details: cited from earlier work
PIK3R2-NC (Homo sapiens), sequence (O00459 325-721): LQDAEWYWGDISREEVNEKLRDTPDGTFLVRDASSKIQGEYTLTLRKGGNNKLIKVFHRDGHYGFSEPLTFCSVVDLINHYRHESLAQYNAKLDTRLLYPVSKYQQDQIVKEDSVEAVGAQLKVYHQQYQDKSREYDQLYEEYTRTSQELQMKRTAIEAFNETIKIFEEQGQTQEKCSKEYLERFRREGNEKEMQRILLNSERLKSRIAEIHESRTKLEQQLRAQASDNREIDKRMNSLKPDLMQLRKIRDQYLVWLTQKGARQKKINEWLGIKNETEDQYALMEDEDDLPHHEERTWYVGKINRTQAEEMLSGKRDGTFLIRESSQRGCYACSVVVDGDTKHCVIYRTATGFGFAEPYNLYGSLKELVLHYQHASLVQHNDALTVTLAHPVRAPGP

PIK3R1-C (Homo sapiens) [9] = biological target: PIK3R1-C (Homo sapiens) (UniProt P27986); details: cited from earlier work; remark: listed apart in the source
PLCG2-N (Homo sapiens) = PLCG2-N (Homo sapiens) (UniProt P16885); details: cited from earlier work
PLCG2-N (Homo sapiens), sequence (P16885 527-740): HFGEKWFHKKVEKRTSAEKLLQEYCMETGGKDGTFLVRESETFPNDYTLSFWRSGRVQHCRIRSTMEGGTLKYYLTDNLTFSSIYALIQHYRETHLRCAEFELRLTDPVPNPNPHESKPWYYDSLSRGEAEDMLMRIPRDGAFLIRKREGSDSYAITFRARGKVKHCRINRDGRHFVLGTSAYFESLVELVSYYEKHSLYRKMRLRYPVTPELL

PTPN11-N (Homo sapiens) = PTPN11-N (Homo sapiens) (UniProt Q06124); details: cited from earlier work
SHF (Homo sapiens) = SHF (Homo sapiens) (UniProt Q7M4L6); details: cited from earlier work
SHF (Homo sapiens), sequence (Q7M4L6 318-423): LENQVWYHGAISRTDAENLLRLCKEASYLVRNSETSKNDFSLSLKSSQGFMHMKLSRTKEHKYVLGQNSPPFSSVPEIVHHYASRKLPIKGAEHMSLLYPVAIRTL

PTPN6-C (Homo sapiens) = PTPN6-C (Homo sapiens) (UniProt P29350); details: cited from earlier work
PTPN6-C (Homo sapiens), sequence (P29350 1-218): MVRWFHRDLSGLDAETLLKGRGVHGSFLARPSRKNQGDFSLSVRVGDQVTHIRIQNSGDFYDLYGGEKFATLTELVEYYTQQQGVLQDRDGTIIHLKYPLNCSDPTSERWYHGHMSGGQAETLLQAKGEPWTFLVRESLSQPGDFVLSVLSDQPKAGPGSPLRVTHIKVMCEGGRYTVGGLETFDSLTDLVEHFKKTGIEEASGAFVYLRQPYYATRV

SYK-NC (Homo sapiens) = SYK-NC (Homo sapiens) (UniProt P43405); details: cited from earlier work
PLCG1-C (Homo sapiens) = PLCG1-C (Homo sapiens) (UniProt P19174); details: cited from earlier work
PLCG1-C (Homo sapiens), sequence (P19174 545-761): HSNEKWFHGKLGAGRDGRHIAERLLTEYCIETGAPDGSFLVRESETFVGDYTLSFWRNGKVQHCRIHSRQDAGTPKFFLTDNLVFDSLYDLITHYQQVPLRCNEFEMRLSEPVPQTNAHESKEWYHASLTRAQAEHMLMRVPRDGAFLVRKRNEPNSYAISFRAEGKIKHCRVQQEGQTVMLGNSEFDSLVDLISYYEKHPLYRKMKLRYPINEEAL

PIK3R3-C (Homo sapiens) = PIK3R3-C (Homo sapiens) (UniProt Q92569); details: cited from earlier work
VAV3 (Homo sapiens) [10] = biological target: VAV3 (Homo sapiens) (UniProt Q9UKW4); details: cited from earlier work; remark: listed apart in the source
GRB7 (Homo sapiens) = GRB7 (Homo sapiens) (UniProt Q14451); details: cited from earlier work
GRB7 (Homo sapiens), sequence (Q14451 426-532): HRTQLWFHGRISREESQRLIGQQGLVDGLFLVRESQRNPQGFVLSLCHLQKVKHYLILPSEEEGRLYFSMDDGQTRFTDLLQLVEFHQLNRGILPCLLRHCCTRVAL

PIK3R1-C (Homo sapiens), sequence (P27986 328-723): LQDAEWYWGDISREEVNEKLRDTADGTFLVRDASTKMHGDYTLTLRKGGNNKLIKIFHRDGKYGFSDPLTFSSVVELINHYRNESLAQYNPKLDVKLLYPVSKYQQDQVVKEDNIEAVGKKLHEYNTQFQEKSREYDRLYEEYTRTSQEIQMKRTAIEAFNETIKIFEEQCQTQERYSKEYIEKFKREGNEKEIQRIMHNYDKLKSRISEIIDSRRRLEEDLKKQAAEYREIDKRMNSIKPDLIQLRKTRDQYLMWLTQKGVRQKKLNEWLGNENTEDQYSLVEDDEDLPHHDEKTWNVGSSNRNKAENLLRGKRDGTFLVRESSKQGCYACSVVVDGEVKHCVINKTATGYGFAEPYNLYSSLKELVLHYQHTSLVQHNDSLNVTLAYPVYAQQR
SH2D3A (Homo sapiens), sequence (Q9BRG2 10-119): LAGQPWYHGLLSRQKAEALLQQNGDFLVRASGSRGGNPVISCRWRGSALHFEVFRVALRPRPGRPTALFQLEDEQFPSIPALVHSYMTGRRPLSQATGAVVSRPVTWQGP

## …pYLIPQQGFd
PIK3R1-C (Homo sapiens) [1]
  apparent Kd (screen): 873 nM
SH2D3A (Homo sapiens)
  apparent Kd (screen): 2000 nM
VAV3 (Homo sapiens) [2]
  apparent Kd (screen): 2000 nM
SH2D3C (Homo sapiens)
  apparent Kd (screen): 2000 nM

## ErbB4 pY1262 phosphopeptide, rhodamine-labelled, for protein microarrays
BLNK SH2 domain (human)
  Kd: 1640 nM
[3]
  Kd: 164 nM and 649 nM
[4]
  Kd: 318 nM
[5]
  Kd: 299 nM and 596 nM
LYN SH2 domain (human)
  Kd: 201 nM and 579 nM
[6]
  Kd: 319 nM and 593 nM
[7]
  Kd: 413 nM and 591 nM
SH2B3 SH2 domain (human)
  Kd: 1630 nM
[8]
  Kd: 2710 nM and 1630 nM

## …pYLVPQQGF
CRK (Homo sapiens)
  apparent Kd (screen): 2000 nM
SHC3 (Homo sapiens)
  apparent Kd (screen): 2000 nM
PIK3R2-NC (Homo sapiens)
  apparent Kd (screen): 2000 nM
PIK3R1-C (Homo sapiens) [9]
  apparent Kd (screen): 2000 nM

## …pYWDQDPPE
PLCG2-N (Homo sapiens)
  apparent Kd (screen): 2000 nM
PTPN11-N (Homo sapiens)
  apparent Kd (screen): 2000 nM
SHF (Homo sapiens)
  apparent Kd (screen): 586 nM
PTPN6-C (Homo sapiens)
  apparent Kd (screen): 2000 nM
SYK-NC (Homo sapiens)
  apparent Kd (screen): 456 nM

## …pYEEMRAFQ
PLCG1-C (Homo sapiens)
  apparent Kd (screen): 321 nM
PIK3R3-C (Homo sapiens)
  apparent Kd (screen): 12 nM
VAV3 (Homo sapiens) [10]
  apparent Kd (screen): 2000 nM
GRB7 (Homo sapiens)
  apparent Kd (screen): 1520 nM

Source: article PMC3433420
